B1: GS1875: dsRNA trigger SEQ ID NO 168; gene target Mitochondrial RNA-splicing protein MRS3 (nucleic acid)
chain: AAAGCTCCAGCTGAGCAATGAGTAAGTGGATCGTAAGCCTTTGATGGGTTCAGAAATGTAGATACAGATTCGTATGCGAGAAGTTGAAGTGCTGTAAATGGTACAGTCATGGAAAGAGTAGTTGGATACGAGATATAGAAGGCTGTGATGCCTTCAGTGCGATAGATATAGCGGGCACAATCACTCAGTGATCTATAAATTTTGCGAGAGTTATGCATTTGCATTCTTTGCTTTATTACATCAAATGGGTTCATTAAAGCATCACTTGCAATTGTTGCGCATGCCCCACTTGTAATGCGCATGCCCCACTTGTAACTATGTAGCTTCAGTAAGTGCTCAATATCAAGGATAAATTGGCGATGTAGTCATATATGTCTGATTCCTTAATCAAAATTCTTAATACAGACCTGCTGCAATAGGATGATGAGCTCCTGTTTGATTACCTCCCATGAGATGTTTGACAGCTTCATAGGTTGCAAAATA
B2: ES43: 497 bp Cyp51-dsRNA, trigger SEQ ID NO 108; gene target Cytochrome P450 (nucleic acid)
DNA: TCTTACCATGAAGCGTTCCATTCCTATGTAACAATAATACAAAATGAAGTAGAGGCATATATAAACAATTGCGTTAGCTTTCAGGGTGAGAGTGGCACAGTAAACATCTCAAAAGTTATGGCGGAAATCACTATATATACTGCTTCACATGCCTTACAAGGAGAAGAGGTCCGTGAGAATTTTGACTCATCTTTTGCCGCTCTTTATCATGATCTTGATATGGGATTTACACCGATCAACTTTACATTTTACTGGGCACCTCTACCTTGGAATCGTGCTCGTGATCATGCCCAAAGAACTGTTGCTAGGACTTATATGAATATAATCCAAGCTCGTAGAGAAGAGAAAAGAAGCGGTGAGAATAAGCATGATATAATGTGGGAGTTGATGCGTTCCACTTATAAAGACGGGACTCCGGTACCTGATCGAGAGATAGCGCATATGATGATAGCCCTTCTGATGGCTGGACAACACTCTTCGTCATCCACGAGCTCATG
B3: GS1879: dsRNA trigger SEQ ID NO 142; gene target Chaperone-dependent E3 ubiquitin protein ligase (nucleic acid)
chain: CTGAATTTCTGAGTTCCGCTATCTTTTTATCTCTTCTTTCCTCAAGTCCGTATTGAAGTTCGTGAGATAATTTACTTCGATTCATCTCTCTTTTACTTTCTTGTGCCTCCCATCCCATTTTTTTACATTTCATCACTAACTCAGTTATTGGCTCTATACTGTTAGCCCCTTTTGTTCCTGCATACATCTCTTCCATACAAAATTTTCGCGCAGTCTTTGCAGATTGAAATGCCTCATCGTAATAATTTAGCGCCAGTTGTGCTTGGGCCAGTTGGAAATATGCTTTCATATTTGATGGGAGGAGACGTAAAGCGCATTGGGCATCTTCAATTACACGATGATGAAGAGATAATTTAAGAAGTACCATTGCACGATTTGTATAAAGTACTGGATTTTGGGGATCACAATTGATCGCTTTTGTGTAAAACATTTCAGCACGCGTATAATCACCAGACTTAAAATATTTATTTC

Legend:
[1] = tested on: GS1885, GS3336, GS1875, GS1879 transcripts; experiment: Gene specific qRT-PCR of GS1885, GS3336, GS1875, GS1879 transcripts in leaf discs (Example 3); format: in vivo, E. necator; conditions: six-days post inoculation, FIG. 4
Description: FIG. 4. Gene specific qRT-PCR analysis of GS1885, GS3336, GS1875, GS1879 transcripts at 6-dpi in leaf discs. The 2-ΔΔCT method was used to analyze the relative changes in gene expression. Gene expression was normalized to the untreated control. GS145 (a non-target dsRNA sequence) was also included as control. Asterisks denote significant differences compared to untreated control (UTC). Statistical comparisons between treatments were performed with ANOVA, followed by Welch's analysis.
(§1) qRT-PCR was performed to validate the effect of exogenous dsRNA on the expression of selected targeted genes for which activity of dsRNA had been shown by leaf assay (as described in Example 2). Samples were treated with dsRNA, inoculated after 24 hours and six leaf discs per treatment were collected at six-days post inoculation (dpi) for further analysis.

E. necator [2] = experiment: Leaf disc assay, dry inoculum (settling tower), decrease in disease severity / hyphal growth (Example 2); conditions: decrease in disease severity (hyphal growth) relative to untreated control, value ± SE; for % decrease =/− SE TP1: time point 1 (untreated control hyphal growth ≥50%); for % decrease =/− SE TP2: time point 2
E. necator [3] = experiment: Greenhouse trial, powdery mildew on grapes, AUDPC of disease incidence and severity (Example 4); format: in vivo, E. necator in grapes
Description: A greenhouse trial was performed to evaluate the efficacy of ES43 dsRNA for controlling E. necator in grapes compared with commercial fungicides (Luna Experience/Pristina) and biofungicides (Regalia Biofungicide/Double Nickel).
Disease incidence was calculated based on the total number of leaves on the plant infected with powdery mildew, out of number of leaves present. Disease severity was calculated based on the percent (%) leaf surface infected overall for each plant. Area under the disease progress curve (AUDPC) was then calculated throughout the entire trial period (FIGS. 5 and 6).

E. necator [4] = experiment: Leaf disc assay, wet inoculum (conidial suspension), disease severity by automated phenotyping (Example 1)
E. necator [5] = experiment: Field trial, natural infestation on Chardonnay grapes, leaf disease incidence (Example 5); format: in vivo, E. necator on Chardonnay grapes; conditions: FIG. 7
Description: A field trial was conducted in ACDS Research vineyard (Dundee, New York) with natural disease infestation on grapes. The trial was set up in four rows (180 ft^2) of Chardonnay grapes, with plots consisting of four vines. The trial included 11 treatments (Table 5), each replicated four times. The grower spray program from budbreak through pre-bloom consisted of sulfur, and trial applications were initiated at bloom. Eight to fifteen applications of ES43 (6.25, 25, 50 and 100 g Ai/ha) were compared with Regalia (470 g Ai/ha) and DoubleNickel (10 billion Cfu/ml), Pristine (333 g Ai/ha) Rally 40 WSP (140 g Ai/ha) and Luna Experience (250 g Ai/ha). Disease incidence, total number of leaves infected out of number of leaves present on several branches, Weekly assessments was performed 1 day before ES43 applications. Data was collected one week after the last application for all treatments at the close of the experiment.
Disease incidence was calculated based on number of leaves infected with powdery mildew out of 20 total leaves.

Cyp51 transcripts = experiment: Gene specific qRT-PCR of ES43 (Cyp51) transcripts in leaf discs (Example 3); format: in vivo, E. necator
Description: FIG. 3. Gene specific qRT-PCR analysis of ES43 (Cyp51) transcripts at 6-dpi in leaf discs. Two housekeeping genes (GDP1 and TEF1) were used as endogenous references to examine the expression of Cyp51. Gene expression was normalized to the untreated control. Statistical significance at p<0.01, Mann-Whitney U test.
as §1

| Molecule | gene silencing in E. necator by sprayed dsRNA / gene expression levels vs untreated control [1] | % decrease =/− SE TP1 (E. necator [2]) | % decrease =/− SE TP2 (E. necator [2]) | AUDPC based on disease severity vs. untreated control (E. necator [3]; FIG. 6) | reduction in disease incidence, twice per week vs once per week (E. necator [3]; twice per week applications at the same rate, numerically) | AUDPC based on disease severity, compared with commercial fungicide and biofungicides (E. necator [3]; weekly and twice-per-week spray interval, FIG. 6) | AUDPC based on disease incidence (E. necator [3]; weekly spray interval, all rates (6.25-100 g ai/ha), FIG. 5) | LSMeans difference (Dunnett's), disease severity (E. necator [4]; Run1, ES43 10 ppm vs negative control GS4 25 ppm) | LSMeans difference (Dunnett's), disease severity (E. necator [4]; Run1, ES43 25 ppm vs negative control GS4 25 ppm) | LSMeans difference (Dunnett's), disease severity (E. necator [4]; Run 2, ES43 10 ppm vs negative control GS4 25 ppm) | LSMeans difference (Dunnett's), disease severity (E. necator [4]; Run 2, ES43 25 ppm vs negative control GS4 25 ppm) | LSMeans difference (Dunnett's), disease severity (E. necator [4]; Run 3, ES43 10 ppm vs negative control GS145 25 ppm) | LSMeans difference (Dunnett's), disease severity (E. necator [4]; Run 3, ES43 25 ppm vs negative control GS145 25 ppm) | powdery mildew development on leaf disks (E. necator [4]; nine-dpi, 10 and 25 ppm, compared to untreated and non-dsRNA targets) | fungal growth determined by disease severity (FIG. 1) (E. necator [4]; three individual runs combined, 10 and 25 ppm, vs controls GS145 or GS4 (p<0.01)) | leaf disease incidence (E. necator [5]; 6.25 g Ai/ha, 7-day and twice a week (3/4-day), 57 days after initial treatments) | leaf disease incidence (E. necator [5]; 50 g Ai/ha, compared to untreated control) | reduction of relative amounts of ES43 (Cyp51) transcripts (Cyp51 transcripts; 6-dpi, compared to untreated control, FIG. 3) | gene silencing in E. necator by sprayed dsRNA (Cyp51 transcripts; qRT-PCR, six-days post inoculation) |
| --- | --- | --- | --- | --- | --- | --- | --- | --- | --- | --- | --- | --- | --- | --- | --- | --- | --- | --- | --- |
| B1 | Induced Gene Silencing | 55 ± 4% | 41 ± 5% |  |  |  |  |  |  |  |  |  |  |  |  |  |  |  |  |
| B2 |  | 41 ± 3% | 28 ± 5% | significantly decreased severity | greater reduction in disease incidence compared to once per week applications at the same rate | performed similarly to commercial fungicide and biofungicides | reduced powdery mildew AUDPC incidence with all rates similar to or better than the biofungicide standard | −61.5000 | −49.1667 | 10.0000 | −26.3750 | −24.0000 | −17.0625 | significant decrease of powdery mildew development | Significant decrease of fungal growth | significantly decreased disease incidence | decreased incidence compared to untreated control | up to 70% | Induced Gene Silencing |
| B3 | Induced Gene Silencing | 49 ± 5% | 41 ± 7% |  |  |  |  |  |  |  |  |  |  |  |  |  |  |  |  |
